According to the nanobody polyreactivity screen of Harvey et al. (2022):

Test: yeast display, Sf9 membrane polyspecificity reagent, FACS + sequencing; frameworks hold sequencing errors
Outline: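 Galactose-induced (36–48 hours) yeast carrying a synthetic nanobody display library were exposed to 10% biotinylated, detergent-solubilized Sf9 membrane reagent at 4 °C for 1 hour. FACS followed streptavidin microbead enrichment, using low and high (top ~1%) gates for expression (anti-HA) and reagent binding (streptavidin). Colony PCR, MiSeq 2 × 250 sequencing and CDR-length filtering followed. Labels for polyreactivity reflect the gate of origin.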

Sequence | polyreactivity (PSR sort gate)
QVQLVESGGGLVQAGGSLRLSCAASGSTFYWYTMGWYRQAPGKERELVATITSSGGRTYYADSVKGRFTISRDNAKNTVYLQMNSLKPEDTAVYYCAAYRRNSRWELDYWGQGTQVTVSS | high polyreactivity
QVQLVESGGGLVHAGGSLRLSCAACGTTFINYAMGWYRQAPGKVRELVAVITSDDGSTYYADSVKGRFTISRDNAKNTVYLQMNSLKPEDTAVYYCAADYYDQRYRPGPWYDYWGQGTQVTVSS | low polyreactivity
QVQLQESGGGLVQAGGSMRLSCAASGYFSNYYSLGLYRQAPGKERELVAGIGTGTSTYYADSVKGRFTISRDNAKNTVYQQMNSLKPEDTAVYYCAAPLDTSSRIFDYWGQGTQVTVSS | low polyreactivity
QVQLVESGGGLVQAGGSLRLSCAASGITLALYAMGWYIQAPGKERELVAAISWTGGSTYYADSVKGRFTISRDNAKNTVYLQMNSLKPEDPAVYYCNAVPGPPHSYLGGDYWGQGTQVTVSS | high polyreactivity
QVQLVESGGGLVQAGGSLRLSWAASGRILSANAMGWYRQAPGKERELVAAITYSGDNTYYADSVKGRFTISRDNAKNTVDVQMNSLKPEDTAVYYCAAVRYYAYLSSWRYDYWGQGTQVTVSS | low polyreactivity
QVQLVESGGGLVQAGGSLRLSCAASGSIFYGNAMGWYRQAPGKERELVAAISTRGGSTYYADSVKGRFTISRDYAKNTVYLQMNSLKPEDTAVYYCNADSRRRLFDYWGQGTQVTVSS | high polyreactivity
QVQLVESVGGLVQAGGSLRLSCAASGFTFVSNAMGWDRQEPGKERELVAAISTGGRTYYADSVKGRFTISRDNAKNTVYLQMNSLKTEDTAFYYCNARYGLRYVRYGEMDYWGQGTQVTVSS | high polyreactivity
QVQLVESGAGLVQAGGSLRLSCAASGRTFTSNSMGLYIQAPGKERELVASISFRGGRTYYADSVKVRFTISRDNAKNTVYLQMNSLKPEDTAVYYCVSGTKRTGYGYWGQGTLVTVSS | high polyreactivity
QVQLVESGGGLVQAGGSLRLSCAASGFTFRKYAMGWYRQAPGKERELVAANTSGGGSTYYADSVKGRFTISRDNAKNTVYLQMNSLKPEDTAVYYCAAKRSGGQGQGYGYWGQGTQVTVSS | high polyreactivity
QVQLVESGGGLVQAGGSLLLSCAASGYTFGFYAMGWYTQAPGKERELVAAISASGGSTYYADSVKGRFTISRDNAKNTVYLQMNSVKPEETAVYYCAAVYSVYYHTWVTTRDYYYWGQGTQVTVSS | high polyreactivity
QVQLVESGGGLVQAGGSLRLSSAASGRIFWAYLMGRYRQAPGKERELVATIRWRGGSTYYADSVKGRFTISRDNAKNTFYLQMIRLKLEDTAVYYCNADRYSRISPTRYDYWGQGTQVTVSS | high polyreactivity
QDQLVESGGGLVQAGGSLRLSCAASGNTFRYYALGGYRQAPGKERELVATITSGGRTYYADSVKGRFTISRDNAKNTVYLQMNSLKPEDTAVHYGAAVGLDYFVGEYDYWGQGTQVTVSS | low polyreactivity
QVQLVESGGGLVQAGGSLRLSCAASGGTFSRNAMGWYRQAPGKERELVAAITSGGRTNYADSVKGRFTISRDNAKNTVYLKMNSLKAEDTAVYYCAARKGKETLYHSTPPYYYWGQGTQVTVSS | high polyreactivity
QVQLVESGGGLVQAGGSLRLSCAASGRIFRRNVMGWYRQAPGKEREMLAAIRGTGSTTYADSVKGRFTISRDNEKNTVYLQMNSLKPEDTAVYYCAAVQQGNHGFRYYYWGQGTQVTVSS | high polyreactivity
QVQLVESGGGLVQAGGSLRLSCAASGFTISLYTMAWYRQAPGKERELVASNTRRGGSTYYADSVKGRFTISRDYAKNTVYLQMNSLKTEDTAGYYCARAARSDSIFKPRRGYATDGYWGQVTQVTVSS | high polyreactivity
QVQLVESGGGLVQAGGSLRLSCAASGFISFGNGMGWYRQAPGKERELVAAITRRGGSTYYADSVKGLFTISRDNAKNTVYLQMNSLKPEDTAVYYCDARYLGSTSTNRPPMDYWGQGTQVTVSS | high polyreactivity
QVQLVESGGGLVQAGGSLRLSCAASGFTFDGYAIGWYRQAPGKERDLVAAISGAGGSTYYADSVKGRFTISRDNAKNTVYFQMNSLKPEDTAFYYCAAEWIADLSSPVWYDYWGQGTQVTVSS | high polyreactivity
QVQLVESGGGLVQAGGSLRISCAPSGSTFPRYAMGWYRQAPGKEREFVAVIWSGGSTYYADSVKGRFTISRDNAKNTVYLQMNSLKPEDTAVYYCAAEYHTLSKYSGYATHDYWGQGTQVTVSS | low polyreactivity
QVQLVESGGGLVQAGGSLRLSCAASGRTFGVNAMGWYRQAPGKERELVARIRVSGGRTYYADSVKGLFTISRDNAKNTVYLQMNSLKPEDTAVYYCNAGYTYNRVIWPYYYWGQGTQVTVSS | high polyreactivity
QVQLVESGGGLVQAGGILRLSCAASGIIFVSYDRGWYRQAPGKERELVAAINRGGRTYYADSVKGRFTISRDNAKNTVYLQMNSLKPEDTAVYYCAAQFHFRPFSWTYDYWGQGTQVTVSS | high polyreactivity
QVQIVESGGGLVQAGGSLRLSCAASGFIFYSYAMGWYRQAPGKEREFVASISGRTGSTYYADSVKVRFTISRDNAKNTVYLQMNSLKPEDTAVYYCNARIVHSFRYDYWGQGTQVTVSS | low polyreactivity
QVHLVESGGGLVQAGGSLRLSCAASGFIFHYNAMGWYRQAPGKERELVAAITSGDSTDYADSVKGRFTISRDNAKNTVYLQMNSLIPEDTAVYYCAAYHREGRRDDYWGQGTQVTVSS | low polyreactivity

Sequence | polyreactivity (PSR sort gate)
QVQLVETGGGLVQAGGSLRLSCAASGSTFSDYVMGWYRQAPGKERELVAAITWSGGSTYYADSVKGRFTISRDNAKNTVYLQMNSLKPEDTAVYYCAADPTASGHFLGQVDYWGQGTQVTVSS | high polyreactivity
QVQLVESGGGLVQAGGSLRLSCAASGRTSVKYAMGWSRQAPGKERELVATIRYRTASTYYADSVKGRFTISRDNAKNTVYLQMNSPKPEDTAVYYCAAATSYASPWWYLYYYWGQGSQVTVSS | high polyreactivity
QVQLVESGGGLVQAGGSLRISCAASGFILYYYAMGWYRQAPGKERELVAAISRNGGRTYYAVSVKGRFTISRDNAKNTVYLQMNSLKPEDTAVYYCNKGVSRTLSSAYDYWGQVTQVTVSS | high polyreactivity
QVQLVESGGGLVQAGGSLRISCAASGNIFGIYTMGWYRQAPGKEREFFAVISLSGTSTYYADSVKGRFTISRDNAKNTVYLQMNSLKPEDTAVYYCNARTPHNKGRRRAYDYWGLGTQVTVSS | high polyreactivity
QVQLEESGAGLVQAGGSLRLSCAASGSIFNLYAMGWYRQAPGKEMELVAAINWSGGSTYYADSVKGRFTISRDNAKNTVYLQMNSLKPEDTAVYYCAADAYSTYYGYEGDYWGQGTQVTVSS | low polyreactivity
QVQLVESGGGLVQAGGSLRLSSAASGRTFGGYAMGWYRQAPGKERELVAAISWTGGSTYDADSVKGRFTISRDNAKNTVYLQMNSLKPEDTAVYYCNRDVGRNYQGPEYYYWGQGTQVTVSS | low polyreactivity
QVQLVESGGGLVQAGGSLRLSCAASGRTLYDYAMEWYRQAPGKERELVAGITSGDSTYYADSVKGRFTISRDNAKNTVDLQMNSLKPEDTAVYYCAADSDTFYYTGYDYDYWGQGTQGTVSS | low polyreactivity
QVQLVESGGGLVQAGGSLRLSGAASGSIFSVYAMGWYRQAPGKERELVASISRSGGSTYYADSVKGRFTISRDNAKNTVYLQMNSLKPEDTAVYYCAAYHPIQEYDYWGQGTQVTVSS | high polyreactivity
QVQLVESGGGLVQAGGRLRLSCAPSGSTFSTYAMGSYRQAPGNERELVAVITWRGGSTYYADSVKGRFTISRDNAKNTVYLQMNSLKPEDTAVYYCAAEGESPEYDYWGQGTQVTVSS | low polyreactivity
QVQLVESGGGLVQAGGSLRLSCAASGRTFFHYAMGGSRQAPGKERELVAAMTSRGDSTYYADSVKGRFTISRDNAKNTVYLQMNSLKPAETAVYYCAVYSHRRNMNYWGQGTQVTVSS | high polyreactivity
QVQLVESGGGLVQAGGSLRLSCAASGRIFGRYALGWYRQAPGKERELVAAISSSGGSTYFADSVKGRFTISRDNAKNTVYLQMNSLKPEDTAGYYCAADVSAKRYYWGQGTQVTVSS | high polyreactivity
QVQLVESGGGLVQAGGSLRLSCAASGSIFYFNAMGWYRQAPGKERELVAAISSGGGTNYADSVKGRFTISRDNAKNTVYLQMNSLKPEDTAVYYCAAAVSLFYPTWYYFSYDYWGQGTQVTVSS | low polyreactivity
QVQLVESGGGLVQAGRSLRLSCAASGSTLTRNAMGWYRQAPGKERELVAAITQRGGSTYYADSVKGRFTISRDNAKNTVYLQMNSLKPEDTAVYYCAAAYRGYARHDYWGQGTQVNVSS | high polyreactivity
QVQLVESGGGLVQAGGSLRLSCAASGRIFSFYAMVWSRQAPGKERELVAAISSGGYTYYADSVKGRFTISRDNAKNTVYLQMNSLKPEDTAVYYCATGYRKLSSRYGYWGQGTQVTVSS | high polyreactivity
QVQLVESGGGLVQAGGSLRLSCAASGFTFRYYAKGWYRQAPVKERELVARISRGGNTYYADSVKGRLTISRDNAKNTVYLHMNSLKPEDTAVYYCAVDLTRTLSGMDYWGQGTQVTVSS | high polyreactivity
QVQLVESGGGLVQAGGSLRLSCSASGITFYRYVMGWYRQAPGKERELVAAISRGGGSTYYADSVKGRFTISRDNAKNTVYLQMNSLKPEDTAVYYCAARAWVQGGIGGQSWFDYWGQGTQVTVSS | high polyreactivity
QDQRVESGGGLVQAGGSLRLSCAASGRIFGTYTMGWYRQAPGKERELVAAITTGGITNYADSVKGRFTISRDNAKNTVYLQMYSLKPEDTAVYYCNARWDYGAYEYWGQGTQVTVSS | low polyreactivity
QVQLVESVVGLVQEGGSLRLSCAASGRIFAWYAMGWYRQAPGKERELVAAISDSGGSTYYADSVKGRFTISRDNAKNTVYLQMNSLKPEDTAVYYCAAQYVIRITFYATYWDDYWGQGTQVTVSS | low polyreactivity
QVQIVESGGGLVQAGGSLPLSCAASGFIYNYNAMGWYRQAPRKERELVAAISTSGSSTYYADSVKGRFTISRDTPKNTVYLQMNSLKPEVTAVYYCARYRVARGEGGWLYDYWGQGTQVTVSS | high polyreactivity
QVQLVESGGGLVQAGGSLRLSCAASGSIFVENAMGWNRQAPGKEREFVAAITRSGGSTYYADSVKGRFTISRDNAKNTVYLQMKILKPEDTAVYYCSARIWDEQPAGGYYWGQGTQVTVSS | low polyreactivity
QVQLVESGGGLVQAGGSLRLSCAASGRIFVQNAMGWYRQAPGKERELVAAISASGGRTSYADSVKGRFTISRDNAKNTVYLQMNSLKPEDTAVYYCAALFRVYPLTKKYGYWGQGTQVTVSS | high polyreactivity
